According to patent publication US20140303084A1 (Biogen, published 2014):
Square brackets hold non-standard residues; d marks the D form. Ends that are not written are not given here. NMeY = CN[C@@H](Cc1ccc(O)cc1)C(=O)O; NMeL = CN[C@@H](CC(C)C)C(=O)O

B1: SKQGRPISADrRAAGKLTCLASYCWLFWTGIA (peptide)
peptide: SKQGRPISAD[dR]RAAGKLTCLASYCWLFWTGIA
modifications: not fully specified; printed as SKQGRPISADrRAAGKLTCLASYCWLFWTGIA; cysteine pairing not given here
B2: SKQGRPISPArRAAGKLTCLASYCWLFWTGIA (peptide)
peptide: SKQGRPISPA[dR]RAAGKLTCLASYCWLFWTGIA
modifications: not fully specified; printed as SKQGRPISPArRAAGKLTCLASYCWLFWTGIA; cysteine pairing not given here
B3: SKQGRPISPDrRAAGKLTCLaSYCWLFWTGIA (peptide)
peptide: SKQGRPISPD[dR]RAAGKLTCL[dA]SYCWLFWTGIA
modifications: not fully specified; printed as SKQGRPISPDrRAAGKLTCLaSYCWLFWTGIA; cysteine pairing not given here
B4: SKQGRPISPDrRAAGKLTCLAS-NMeTyr-CWLFWTGIA (peptide)
peptide: SKQGRPISPD[dR]RAAGKLTCLAS[NMeY]CWLFWTGIA
modifications: not fully specified; cysteine pairing not given here
B5: SKQGRPISPDrRAAGKLTCLASYCW-NMeLeu-FWTGIA (peptide)
peptide: SKQGRPISPD[dR]RAAGKLTCLASYCW[NMeL]FWTGIA
modifications: not fully specified; cysteine pairing not given here
B6: SKQGRPISSDrRAAGKLTCLASYCWLFWTGIA (peptide)
peptide: SKQGRPISSD[dR]RAAGKLTCLASYCWLFWTGIA
modifications: not fully specified; printed as SKQGRPISSDrRAAGKLTCLASYCWLFWTGIA; cysteine pairing not given here
B7: SKQGRPISSDrRAAGKSTCLASYCWLFWTGIA (peptide)
peptide: SKQGRPISSD[dR]RAAGKSTCLASYCWLFWTGIA
modifications: not fully specified; printed as SKQGRPISSDrRAAGKSTCLASYCWLFWTGIA; cysteine pairing not given here
B8: SKQGRPISSDrRASGKLTCLASYCWLFWTGIA (peptide)
peptide: SKQGRPISSD[dR]RASGKLTCLASYCWLFWTGIA
modifications: not fully specified; printed as SKQGRPISSDrRASGKLTCLASYCWLFWTGIA; cysteine pairing not given here
B9: SKQGRPISSDrRASGKSTCLASYCWLFWTGIA (peptide)
peptide: SKQGRPISSD[dR]RASGKSTCLASYCWLFWTGIA
modifications: not fully specified; printed as SKQGRPISSDrRASGKSTCLASYCWLFWTGIA; cysteine pairing not given here
B10: RPRSSAHDRP RRAAG KLTCLASYCWLFWTGIA (peptide)
peptide: RPRSSAHDRPRRAAGKLTCLASYCWLFWTGIA
B11: TALSRGLVTM RTAPD KLTCLASYCWLFWTGIA (peptide)
peptide: TALSRGLVTMRTAPDKLTCLASYCWLFWTGIA
B12: PARGKERELM RRAPG KLTCLASYCWLFWTGIA (peptide)
peptide: PARGKERELMRRAPGKLTCLASYCWLFWTGIA
B13: compound C (peptide)
peptide: LYTAWIKCQFARLPGCALSGRW-NH2
modifications: cysteine pairing not given here
B14: GRAMAAEPWP RQAPG KLTCLASYCWLFWTGIA (peptide)
peptide: GRAMAAEPWPRQAPGKLTCLASYCWLFWTGIA
B15: AQWVGRGQWA IRAPG KLTCLASYCWLFWTGIA (peptide)
peptide: AQWVGRGQWAIRAPGKLTCLASYCWLFWTGIA
B16: PRTTANRRSS RRAPA KLTCLASYCWLFWTGIA (peptide)
peptide: PRTTANRRSSRRAPAKLTCLASYCWLFWTGIA
B17: PNLLRVRTSE VRNPG KLTCLASYCWLFWTGIA (peptide)
peptide: PNLLRVRTSEVRNPGKLTCLASYCWLFWTGIA
B18: SLISMTNPSG RRVPG KLTCLASYCWLFWTGIA (peptide)
peptide: SLISMTNPSGRRVPGKLTCLASYCWLFWTGIA
B19: NGALGFRSVV PRAAG KLTCLASYCWLFWTGIA (peptide)
peptide: NGALGFRSVVPRAAGKLTCLASYCWLFWTGIA
B20: PQTRDPSSRD RRAPG KLTCLASYCWLFWTGIA (peptide)
peptide: PQTRDPSSRDRRAPGKLTCLASYCWLFWTGIA
B21: RRAPGKLTCLASYCWLF VTGTA HAPRVAPAPA (peptide)
peptide: RRAPGKLTCLASYCWLFVTGTAHAPRVAPAPA
B22: RRAPGKLTCLASYCWLF WTAVG GQPYMLLAWR (peptide)
peptide: RRAPGKLTCLASYCWLFWTAVGGQPYMLLAWR
B23: RRAPGKLTCLASYCWLF WAGIA PHRPLKERVR (peptide)
peptide: RRAPGKLTCLASYCWLFWAGIAPHRPLKERVR
B24: RRAPGKLTCLASYCWLF WAVIA PPKVKGTRQS (peptide)
peptide: RRAPGKLTCLASYCWLFWAVIAPPKVKGTRQS
B25: RRAPGKLTCLASYCWLF ATGVT FPQIWAIPSP (peptide)
peptide: RRAPGKLTCLASYCWLFATGVTFPQIWAIPSP
B26: RRAPGKLTCLASYCWLF YTGIA HGHPMEHRKS (peptide)
peptide: RRAPGKLTCLASYCWLFYTGIAHGHPMEHRKS
B27: RRAPGKLTCLASYCWLF LTGWA RVPLPPRPHP (peptide)
peptide: RRAPGKLTCLASYCWLFLTGWARVPLPPRPHP
B28: RRAPGKLTCLASYCWLF WTGIA RWPSHRSGPS (peptide)
peptide: RRAPGKLTCLASYCWLFWTGIARWPSHRSGPS
modifications: not fully specified (C-terminus); cysteine pairing not given here
B29: RRAPGKLTCLASYCWLF WTTYA SYATKPADTT (peptide)
peptide: RRAPGKLTCLASYCWLFWTTYASYATKPADTT
B30: RRAPGKLTCLASYCWLF WSGIA PQPPNMRPSV (peptide)
peptide: RRAPGKLTCLASYCWLFWSGIAPQPPNMRPSV
B31: RRAPGKLTCLASYCWLF WTTWT TAPTTPPLTT (peptide)
peptide: RRAPGKLTCLASYCWLFWTTWTTAPTTPPLTT
B32: RRAPGKLTCLASYCWLF WTGLL DYPTPQSHEP (peptide)
peptide: RRAPGKLTCLASYCWLFWTGLLDYPTPQSHEP
B33: SKQGRPISPDRRAAGKLTCLASYCWLFGSGISLSRAPESAAP (peptide)
peptide: SKQGRPISPDRRAAGKLTCLASYCWLFGSGISLSRAPESAAP
B34: RRAPGKLCALASYCWLFWTGIA-COOH (peptide)
peptide: RRAPGKLCALASYCWLFWTGIA-OH
modifications: cysteine pairing not given here
B35: RRAPGKCTALASYCWLFWTGIA-COOH (peptide)
peptide: RRAPGKCTALASYCWLFWTGIA-OH
modifications: cysteine pairing not given here
B36: RRAPGCLTALASYCWLFWTGIA-COOH (peptide)
peptide: RRAPGCLTALASYCWLFWTGIA-OH
modifications: cysteine pairing not given here
B37: RRAPGKLTCLASYAWCFWTGIA-COOH (peptide)
peptide: RRAPGKLTCLASYAWCFWTGIA-OH
modifications: cysteine pairing not given here
B38: RRAPGKLTCLASYAWLCWTGIA-COOH (peptide)
peptide: RRAPGKLTCLASYAWLCWTGIA-OH
modifications: cysteine pairing not given here
B39: RRAPGKLCALASYACLFWTGIA-COOH (peptide)
peptide: RRAPGKLCALASYACLFWTGIA-OH
modifications: cysteine pairing not given here
B40: RRAPGKCTALASYAWCFWTGIA-COOH (peptide)
peptide: RRAPGKCTALASYAWCFWTGIA-OH
modifications: cysteine pairing not given here
B41: RRAPGCLTALASYAWLCWTGIA-COOH (peptide)
peptide: RRAPGCLTALASYAWLCWTGIA-OH
modifications: cysteine pairing not given here
B42: RRAPGKLCALASYCWLFWTGIA-CONH2 (peptide)
peptide: RRAPGKLCALASYCWLFWTGIA-NH2
modifications: cysteine pairing not given here
B43: RRAPGKCTALASYCWLFWTGIA-CONH2 (peptide)
peptide: RRAPGKCTALASYCWLFWTGIA-NH2
modifications: cysteine pairing not given here
B44: RRAPGCLTALASYCWLFWTGIA-CONH2 (peptide)
peptide: RRAPGCLTALASYCWLFWTGIA-NH2
modifications: cysteine pairing not given here
B45: RRAPGKLTCLASYACLFWTGIA-CONH2 (peptide)
peptide: RRAPGKLTCLASYACLFWTGIA-NH2
modifications: cysteine pairing not given here
B46: RRAPGKLTCLASYAWCFWTGIA-CONH2 (peptide)
peptide: RRAPGKLTCLASYAWCFWTGIA-NH2
modifications: cysteine pairing not given here
B47: RRAPGKLTCLASYAWLCWTGIA-CONH2 (peptide)
peptide: RRAPGKLTCLASYAWLCWTGIA-NH2
modifications: cysteine pairing not given here

Biological target: human Factor IXa (human, UniProt P00740 47-191; P00740 227-461)
Assay: cell-based or functional assay

Binder	EC50 [µM], FXa generation assay [µM]	EC50 [µM], FXa generation assay with hFIXa [µM]
B1	< 0.5	
B2	< 0.5	
B3	> 10	
B4	> 10	
B5	> 10	
B6	< 0.5	
B7	< 0.5	
B8	< 0.5	
B9	< 0.5	
B10	> 1	
B11	< 0.5	
B12	> 1	
B13		> 25
B14	< 0.5	
B15	> 1	
B16	< 0.5	
B17	< 0.5	
B18	< 0.5	
B19	< 0.5	
B20	< 0.5	
B21	> 1	
B22	< 0.5	
B23	> 1	
B24	> 1	

Binder	EC50 [µM], FXa generation assay [µM]	EC50 [µM], FXa generation assay with hFIXa [µM]
B25	> 1	
B26	> 1	
B27	> 1	
B28	> 1	
B29	< 0.5	
B30	< 0.5	
B31	< 0.5	
B32	< 0.5	
B33	> 10	
B34	> 1	
B35	> 1	
B36	> 1	
B37	> 1	
B38	> 10	
B39	> 10	
B40	> 1	
B41	> 20	
B42	> 1	
B43	> 1	
B44	> 1	
B45	> 1	
B46	> 20	
B47	> 10	
